How the values were obtained:
[1] = target: TDP-43 NTD NTD (Homo sapiens) (UniProt Q13148); test: AUC; details: cited from earlier work
[2] = target: the molecule itself; test: SEC; 0.5 mg/mL (45 µM) NTD loaded, 0.0% SB3-10, Superdex 200 Increase 10/300 GL, 5 mM sodium phosphate, 50 mM NaCl, 1 mM DTT, pH 7.4, 4 °C; calibration with folded standards

TDP-43 NTD NTD, sequence (Q13148 1-80): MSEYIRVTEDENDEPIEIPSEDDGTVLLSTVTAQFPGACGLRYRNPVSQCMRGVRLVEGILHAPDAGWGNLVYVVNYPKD

| Molecule | Kd [1] [µM] | stoichiometry N [2] |
| --- | --- | --- |
| TDP-43 NTD NTD (from UniProt Q13148) | 40 |  |
| N-terminal domain (NTD) of TAR DNA-binding protein 43 (TDP-43) (domain or fragment, UniProt Q13148 1-77, looked up, whole protein has 414 residues; also called TDP-43 NTD; native NTD; source: purified as previously described [24]) MSEYIRVTEDENDEPIEIPSEDDGTVLLSTVTAQFPGACGLRYRNPVSQCMRGVRLVEGILHAPDAGWGNLVYVVNY |  | ~2 |

From paper PMC9268139, “Conversion of the Native N-Terminal Domain of TDP-43 into a Monomeric Alternative Fold with Lower Aggregation Propensity” (Molecules, 2022)
